Assay results from patent publication US20110294738A1, “PTHR1 RECEPTOR COMPOUNDS” (priority 2008, published 2011).
* marks the point of attachment. Palmitoyl = CCCCCCCCCCCCCCCC(=O)*

T1: PTHR1 (Rattus norvegicus, UniProt P25961)
T1 sequence (P25961 27-591): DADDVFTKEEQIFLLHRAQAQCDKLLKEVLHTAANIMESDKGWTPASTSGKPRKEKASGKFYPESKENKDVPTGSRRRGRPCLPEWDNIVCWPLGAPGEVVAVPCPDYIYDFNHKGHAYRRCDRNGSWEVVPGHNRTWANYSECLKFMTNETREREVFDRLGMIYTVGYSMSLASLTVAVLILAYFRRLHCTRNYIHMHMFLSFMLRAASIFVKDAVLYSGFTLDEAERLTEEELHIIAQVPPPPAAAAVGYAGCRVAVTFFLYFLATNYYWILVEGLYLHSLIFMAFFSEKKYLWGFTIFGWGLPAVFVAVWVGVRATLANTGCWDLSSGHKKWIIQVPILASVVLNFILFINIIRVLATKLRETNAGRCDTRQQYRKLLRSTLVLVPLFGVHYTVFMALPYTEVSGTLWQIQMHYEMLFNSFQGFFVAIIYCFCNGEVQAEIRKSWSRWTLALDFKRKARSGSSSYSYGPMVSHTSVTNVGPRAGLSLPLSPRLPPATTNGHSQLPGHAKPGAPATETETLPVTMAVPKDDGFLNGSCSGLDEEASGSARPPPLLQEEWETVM


Legend:
[1] = molecular target: T1, PTHR1; assay: cAMP screening assay using DiscoveRX XS+ kit (PTH1-34 dose-response in UMR-106 cells); details: compound 10 μM; for Fold Shift of EC50: PTH1-34 EC50 compound/EC50 vehicle; for Inhibition of Maximal Response: PTH1-34 stimulated maximal response, 1−(Emax compound/Emax vehicle)
Experimental: cAMP Screening Assay Using DiscoveRX XS+ Kit
UMR-106 cells were seeded in 96-well white plates at 10K cells/well in growth media. Twenty four hours after seeding, cell media was removed by gentle dumping and replaced with 30 μL of compounds diluted to 10 μM final concentration in assay buffer (Hank's balanced Salt Solution, 20 mM HEPES, pH 7.4, 0.1 μM IBMX). After 30 minute incubation at room temperature, 10 μL human PTH1-34 serial diluted in assay buffer was added. Cells were incubated at 37° C. for 15 minutes before 10 μL of water soluble analog of forskolin, NKH477 was added to final concentration of 10 μM followed by 60 minute incubation at room temperature. DiscoveRX cAMP XS+ kit reagents were then added following manufacture protocol. Briefly, 10 μL of antibody was added to each well followed by 40 μL of ED/Lysis buffer mix (1/5/19 for Galacon-star/Emerald/Lysis buffer and then 1:1 with ED). After 1 hour incubation, 40 μL of EA reagent was added followed by at least 1 hour incubation before the plates were read on TopCount reader. Data was analyzed using GraphPad Prism. PTH1-34 dose-response curves were fitted using non-linear curve fit (Y=Bottom+(Top−Bottom)/(1+10̂((Log EC50−X)*HillSlope))). PTH1-34 EC50 values calculated in the presence of compounds were compared to that in the presence of vehicle control. The ratio of the EC50 values were calculated and presented as fold shift (EC50 compound/EC50 vehicle). The effect of compounds on PTH1-34 stimulated maximal response was also assessed and was presented percent inhibition (1−(Emax compound/Emax vehicle)).

[2] = molecular target: PTHR1 receptor
Chain of PTHR1 receptor (P25961 whole entry): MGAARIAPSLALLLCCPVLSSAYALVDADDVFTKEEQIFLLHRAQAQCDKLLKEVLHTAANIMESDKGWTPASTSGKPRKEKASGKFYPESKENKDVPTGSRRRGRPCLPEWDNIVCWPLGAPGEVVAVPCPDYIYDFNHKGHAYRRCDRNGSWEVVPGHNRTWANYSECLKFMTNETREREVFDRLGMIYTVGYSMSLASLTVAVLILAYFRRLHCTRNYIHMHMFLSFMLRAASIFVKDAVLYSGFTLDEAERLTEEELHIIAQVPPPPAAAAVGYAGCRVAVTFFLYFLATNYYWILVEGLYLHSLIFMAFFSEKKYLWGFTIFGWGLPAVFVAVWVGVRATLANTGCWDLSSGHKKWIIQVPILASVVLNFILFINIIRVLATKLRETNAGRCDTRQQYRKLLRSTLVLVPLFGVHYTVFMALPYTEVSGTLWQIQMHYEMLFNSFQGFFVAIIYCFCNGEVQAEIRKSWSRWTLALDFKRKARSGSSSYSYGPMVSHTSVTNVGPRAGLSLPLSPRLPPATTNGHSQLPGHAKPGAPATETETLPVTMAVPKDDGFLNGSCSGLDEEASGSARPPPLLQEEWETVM

Molecule	Fold Shift of EC50 [1]	Inhibition of Maximal Response [1] [%]	Fold Shift of EC50 [2] [fold]	Inhibition of Maximal Response [2] [%]
LAYFRRLHSTRNY [Compound 3]	0.7	−51.40		
TNAGRSDTRQAYRKLL [Compound 93]	13.4	−67.00		
TNAARSDTRQQYRKLL [Compound 80]	2.3	0.80		
SSYFRRLHSTRNYIH [Compound 12]	0.9	26.60		
LYLHSLIFMSFFSEKK [Compound 40]	1.5	28.30		
TNAGASDTRQQYRKLL [Compound 76]	16.9	2.40		
GSYFRRLHSTRNYIH [Compound 11]	1.1	19.80		
TNAGRSDTRQQYRKAL [Compound 89]	2.3	−20.40		
LYLHSLIFMAFFSEKKYLWGFT [Compound 34]	1.2	4.20		
TNAGRSDTRQQARKLL [Compound 92]	5	8.30		
TNAGRSDTRQQYRKLLFS [Compound 85]	6.9	19.50		
TNAGRSDARQQYRKLL [Compound 79]	7.2	1.20		
Pal-TNAGRSATRQQYRKLL-amide (Palmitoyl-TNAGRSATRQQYRKLL-NH2; SMILES CCCCCCCCCCCCCCCC(=O)N[C@H](C(=O)N[C@@H](CC(N)=O)C(=O)N[C@@H](C)C(=O)NCC(=O)N[C@@H](CCCNC(=N)N)C(=O)N[C@@H](CO)C(=O)N[C@@H](C)C(=O)N[C@H](C(=O)N[C@@H](CCCNC(=N)N)C(=O)N[C@@H](CCC(N)=O)C(=O)N[C@@H](CCC(N)=O)C(=O)N[C@@H](Cc1ccc(O)cc1)C(=O)N[C@@H](CCCNC(=N)N)C(=O)N[C@@H](CCCCN)C(=O)N[C@@H](CC(C)C)C(=O)N[C@@H](CC(C)C)C(N)=O)[C@@H](C)O)[C@@H](C)O) [Compound 82]	23.4	−21.60		
TNAGRSDTRAQYRKLL [Compound 81]	13.8	−20.80		
RRLHSTRNYIH [Compound 2]	1.9	−24.90		
TNAGRSDTRQQYAKLL [Compound 91]	2	9.80		
TNAGRSDTRQQYRALL [Compound 90]	2	21.00		
AGRSDTRQQYRKLLFS [Compound 95]	19	−5.70		
TNAGRSDTAQQYRKLL [Compound 78]	12.7	−29.20		
Palmitoyl-TNAGRSDTRQQYRF-NH2 (SMILES CCCCCCCCCCCCCCCC(=O)N[C@H](C(=O)N[C@@H](CC(N)=O)C(=O)N[C@@H](C)C(=O)NCC(=O)N[C@@H](CCCNC(=N)N)C(=O)N[C@@H](CO)C(=O)N[C@@H](CC(=O)O)C(=O)N[C@H](C(=O)N[C@@H](CCCNC(=N)N)C(=O)N[C@@H](CCC(N)=O)C(=O)N[C@@H](CCC(N)=O)C(=O)N[C@@H](Cc1ccc(O)cc1)C(=O)N[C@@H](CCCNC(=N)N)C(=O)N[C@@H](Cc1ccccc1)C(N)=O)[C@@H](C)O)[C@@H](C)O) [Compound 70]			2	15.1
Palmitoyl-SGRVLATKLR-NH2 (SMILES CCCCCCCCCCCCCCCC(=O)N[C@@H](CO)C(=O)NCC(=O)N[C@@H](CCCNC(=N)N)C(=O)N[C@H](C(=O)N[C@@H](CC(C)C)C(=O)N[C@@H](C)C(=O)N[C@H](C(=O)N[C@@H](CCCCN)C(=O)N[C@@H](CC(C)C)C(=O)N[C@@H](CCCNC(=N)N)C(N)=O)[C@@H](C)O)C(C)C) [Compound 71]			0.8	13.5
